{"source": "patent EP2986720B1", "about": "“URICASE MUTANTS” (Council of Scientific & Industrial Research, priority 2013, dated 2014)", "assay_in_all_cases": "Enzyme kinetic study of uricase (4-AAP/phenol/HRP colour assay, 505 nm)", "key": {"[1]": {"test_system": "O=c1[nH]c(=O)c2[nH]c(=O)[nH]c2[nH]1", "format": "biochemical, Kluyveromyces lactis", "conditions": "other: substrate uric acid 10 to 600 µM, pH 7.0, 35°C, Table 1", "description": "(§1) Enzymatic assay of uricase: Substrate mixture contains • a. 2.2 ml of 2 mM Uric acid • b. 0.15 ml of 60 mM 4-Aminoantipyrine (4-AAP) • c. 0.15 ml of 1.5% Phenol • d. 0.15 ml of 20 U/ml Horseradish peroxidase (HRP) • e. 0.1 M respective buffer to make up to 3 ml • a. Uricase added to the above mixture and incubated at 25°C for 20 min. The colour is measured at 505 nm (Chen, Wang et al. 2008). • b. The reaction mix was set for 300 µl rather than 3 ml for convenient measuring in BiotekPowerwave X Elisa plate reader. The amounts of the solutions added in the assay mix were calculated accordingly for 300 µl.\n(§2) The kinetics of the uricases was studied to evaluate the efficiency of the enzymes. The kinetic parameters of the uricases of all the species were determined at their respective optimum pH and optimum temperatures. The substrate (uric acid) was added in increasing concentrations ranging from 10 to 600 µM (10, 20, 40, 80, 100, 200, 300, 400, 500, and 600) in triplicates. The assay reagents for the kinetic studies were added in 96 well plates in triplicates in the buffer of pH 7.0 and incubated at 35°C. Equal amounts of enzyme were added and immediately readings were taken at 505 nm. Around 30 readings were taken at the interval of 1min. The readings at a particular time point were taken for further steady state kinetic study of uricases. The KM and Vmax values were determined from Michaelis-Menten saturation curve by the non-linear curve fit (ORIGIN 7.5). kcat and kcat/KM values were also calculated (table 5). Table 5: Kinetic properties of the uricases of this invention"}, "[2]": {"target": "T1, Kluyveromyces lactis uricase variant KI T62S, Mutant 1 (SEQ ID NO.2) (Kluyveromyces lactis, UniProt Q6CNP7, T62S)", "T1 sequence (Q6CNP7 1-308 T62S)": "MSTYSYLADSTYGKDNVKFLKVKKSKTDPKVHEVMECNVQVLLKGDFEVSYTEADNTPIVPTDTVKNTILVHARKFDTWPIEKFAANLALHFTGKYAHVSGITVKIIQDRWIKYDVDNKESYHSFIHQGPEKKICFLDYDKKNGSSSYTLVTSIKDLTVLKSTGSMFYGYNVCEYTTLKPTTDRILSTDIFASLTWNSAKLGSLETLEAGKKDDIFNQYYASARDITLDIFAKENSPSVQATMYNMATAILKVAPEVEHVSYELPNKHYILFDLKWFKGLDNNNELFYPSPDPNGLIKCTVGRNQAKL", "format": "biochemical", "conditions": "substrate uric acid; pH 7.0, 35°C; Table 5", "description": "as §1, §2"}, "[3]": {"target": "T2, Kluyveromyces lactis uricase variant KI F167W, Mutant 2 (SEQ ID NO.3) (Kluyveromyces lactis, UniProt Q6CNP7, F167W)", "T2 sequence (Q6CNP7 1-308 F167W)": "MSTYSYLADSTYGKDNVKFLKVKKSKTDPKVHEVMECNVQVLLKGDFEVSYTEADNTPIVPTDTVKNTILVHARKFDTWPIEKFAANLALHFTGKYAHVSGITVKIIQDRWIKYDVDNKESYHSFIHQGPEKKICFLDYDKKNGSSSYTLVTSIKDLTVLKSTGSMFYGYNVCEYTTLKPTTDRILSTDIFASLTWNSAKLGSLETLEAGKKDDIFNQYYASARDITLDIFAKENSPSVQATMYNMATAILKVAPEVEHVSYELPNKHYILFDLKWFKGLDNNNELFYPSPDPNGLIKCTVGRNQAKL", "format": "biochemical", "conditions": "substrate uric acid; pH 7.0, 35°C; Table 5", "description": "as §1, §2"}, "[4]": {"target": "T3, Kluyveromyces lactis uricase KlUOX (wild type) (SEQ ID NO.1) (Kluyveromyces lactis, UniProt Q6CNP7)", "T3 sequence (Q6CNP7 1-308)": "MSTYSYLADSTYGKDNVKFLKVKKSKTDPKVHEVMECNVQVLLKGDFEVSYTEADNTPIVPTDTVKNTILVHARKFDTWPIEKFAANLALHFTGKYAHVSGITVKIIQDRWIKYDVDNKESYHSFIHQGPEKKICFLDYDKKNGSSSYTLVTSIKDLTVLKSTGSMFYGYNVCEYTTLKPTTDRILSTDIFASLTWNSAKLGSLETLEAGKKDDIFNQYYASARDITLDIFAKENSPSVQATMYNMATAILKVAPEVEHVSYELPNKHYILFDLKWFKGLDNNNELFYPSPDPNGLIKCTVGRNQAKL", "format": "biochemical", "conditions": "substrate uric acid; pH 7.0, 35°C; Table 5", "description": "as §1, §2"}, "[5]": {"test_system": "O=c1[nH]c(=O)c2[nH]c(=O)[nH]c2[nH]1", "format": "biochemical, Aspergillus flavus", "conditions": "other: substrate uric acid 10 to 600 µM; respective optimum pH and temperature; Table 1; pH 7.0", "description": "as §1, §2"}, "[6]": {"substrate": "O=c1[nH]c(=O)c2[nH]c(=O)[nH]c2[nH]1", "format": "biochemical, Candida utilis", "conditions": "other: substrate uric acid 10 to 600 µM; respective optimum pH and temperature; Table 1; pH 7.0", "description": "as §1, §2"}, "[7]": {"substrate": "O=c1[nH]c(=O)c2[nH]c(=O)[nH]c2[nH]1", "format": "biochemical, A. globiformis", "conditions": "other: substrate uric acid 10 to 600 µM; respective optimum pH and temperature; Table 1; pH 7.0", "description": "as §1, §2"}, "[8]": {"substrate": "O=c1[nH]c(=O)c2[nH]c(=O)[nH]c2[nH]1", "format": "biochemical, Kluyveromyces lactis", "conditions": "other: substrate uric acid 10 to 600 µM, pH 7.0, 35°C, Table 1", "description": "as §1, §2", "remark": "listed apart in the source"}}, "data": [{"molecule": "Kluyveromyces lactis uricase variant KI F167W, Mutant 2 (SEQ ID NO.3) (Kluyveromyces lactis NRRL Y-1140; F167W)", "values": [{"measurement": "Km", "setting": "[1]", "value": 28.07, "unit": "µM"}, {"measurement": "kcat", "setting": "[1]", "value": 0.242, "unit": "s⁻¹"}, {"measurement": "kcat/Km", "setting": "[1]", "value": 8600, "unit": "M⁻¹ s⁻¹"}]}, {"molecule": "Kluyveromyces lactis uricase variant KI T62S, Mutant 1 (SEQ ID NO.2) (Kluyveromyces lactis NRRL Y-1140; T62S)", "values": [{"measurement": "Km", "setting": "[1]", "value": 16.2, "unit": "µM"}, {"measurement": "kcat", "setting": "[1]", "value": 0.2387, "unit": "s⁻¹"}, {"measurement": "kcat/Km", "setting": "[1]", "value": 14700, "unit": "M⁻¹ s⁻¹"}]}, {"molecule": "O=c1[nH]c(=O)c2[nH]c(=O)[nH]c2[nH]1", "note": "[uric acid]", "values": [{"measurement": "Kcat", "setting": "[2]", "value": 0.2387, "unit": "s⁻¹"}, {"measurement": "Kcat", "setting": "[3]", "value": 0.242, "unit": "s⁻¹"}, {"measurement": "Kcat", "setting": "[4]", "value": 0.2027, "unit": "s⁻¹"}]}, {"molecule": "A. flavus uricase (Aspergillus flavus)", "values": [{"measurement": "Km", "setting": "[5]", "value": 96.2, "unit": "µM"}, {"measurement": "kcat", "setting": "[5]", "value": 0.0717, "unit": "s⁻¹"}, {"measurement": "kcat/Km", "setting": "[5]", "value": 733, "unit": "M⁻¹ s⁻¹"}]}, {"molecule": "C. utilis uricase (Williopsis jadinii) (protein) MSTTLSSSTYGKDNVKFLKVKKDPQNPKKQEVMEATVTCLLEGGFDTSYTEADNSSIVPTDTVKNTILVLAKTTEIWPIERFAAKLATHFVEKYSHVSGVSVKIVQDRWVKYAVDGKPHDHSFIHEGGEKRITDLYYKRSGDYKLSSAIKDLTVLKSTGSMFYGYNKCDFTTLQPTTDRILSTDVDATWVWDNKKIGSVYDIAKAADKGIFDNVYNQAREITLTTFALENSPSVQATMFNMATQILEKACSVYSVSYALPNKHYFLIDLKWKGLENDNELFYPSPHPNGLIKCTVVRKEKTKL", "values": [{"measurement": "Km", "setting": "[6]", "value": "38.5 ± 5.16", "unit": "µM"}, {"measurement": "kcat", "setting": "[6]", "value": 0.2027, "unit": "s⁻¹"}, {"measurement": "kcat/Km", "setting": "[6]", "value": 5250, "unit": "M⁻¹ s⁻¹"}]}, {"molecule": "A. globiformis uricase (Arthrobacter globiformis) (protein) MTATAETSTGTKVVLGQNQYGKAEVRLVKVTRNTARHEIQDLNVTSQLRGDFEAAHTAGDNAHVVATDTQKNTVYAFARDGFATTEEFLLRLGKHFTEGFDWVTGGRWAAQQFFWDRINDHDHAFSRNKSEVRTAVLEISGSEQAIVAGIEGLTVLKSTGSEFHGFPRDKYTTLQETTDRILATDVSARWRYNTVEVDFDAVYASVRGLLLKAFAETHSLALQQTMYEMGRAVIETHPEIDEIKMSLPNKHHFLVDLQPFGQDNPNEVFYAADRPYGLIEATIQREGSRADHPIWSNIAGFC", "values": [{"measurement": "Km", "setting": "[7]", "value": "215 ± 2.16", "unit": "µM"}, {"measurement": "kcat", "setting": "[7]", "value": 0.0145, "unit": "s⁻¹"}, {"measurement": "kcat/Km", "setting": "[7]", "value": 67, "unit": "M⁻¹ s⁻¹"}]}, {"molecule": "Kluyveromyces lactis uricase KlUOX (wild type) (SEQ ID NO.1) (Kluyveromyces lactis NRRL Y-1140) (protein) MSTYSYLADSTYGKDNVKFLKVKKSKTDPKVHEVMECNVQVLLKGDFEVSYTEADNTPIVPTDTVKNTILVHARKFDTWPIEKFAANLALHFTGKYAHVSGITVKIIQDRWIKYDVDNKESYHSFIHQGPEKKICFLDYDKKNGSSSYTLVTSIKDLTVLKSTGSMFYGYNVCEYTTLKPTTDRILSTDIFASLTWNSAKLGSLETLEAGKKDDIFNQYYASARDITLDIFAKENSPSVQATMYNMATAILKVAPEVEHVSYELPNKHYILFDLKWFKGLDNNNELFYPSPDPNGLIKCTVGRNQAKL", "values": [{"measurement": "Km", "setting": "[8]", "value": 40.8, "unit": "µM"}, {"measurement": "kcat", "setting": "[8]", "value": 0.2027, "unit": "s⁻¹"}, {"measurement": "kcat/Km", "setting": "[8]", "value": 4830, "unit": "M⁻¹ s⁻¹"}]}]}
